According to patent US7642046B2, “Method for monitoring recruitment of proteins to the intracellular domain of a receptor in intact cells” (priority 2001, dated 2010):

Tests used:
LTβR = target: T1, LTβR (Homo sapiens, UniProt P25942+P36941); experiment: Recruitment assay with hybrid receptor (CD40 extracellular domain, LTβR transmembrane and intracellular domain); type: cell-based; settings: 293T cells, CD40 as relative standard
T1 construct: cDNA fragments encoding for the transmembrane and cytoplasmic domains of the LTβR, TACI, the p75TNF receptor, CD27; expressed in transfected cells; host or cells: 293T
Experimental: (§1) The recruitment of TRAF to CD40 can be quantitatively measured using the assay described in example 1. For that purpose, the assay conditions were adjusted in such a way that TRAF expression was in significant excess over the expression of CD40. This was the case when the TRAF expression plasmid was used at a two to three fold excess over the CD40 expression plasmid. The CD40 bound TRAF concentration was measured as described in example 1. A reference extract containing CD40/TRAF complexes served as a standard in each assay. This standard extract consisted of a large pool extract from cells that had been co-transfected with the plasmids encoding CD40/TRAF1, CD40/TRAF2, CD40/TRAF3, CD40/TRAF5 and CD40/TRAF6. The extracts were tested for the presence of CD40/TRAF complexes and the complex concentrations in each extract were arbitrarily defined as 1000 U/ml. The extracts were frozen in small aliquots and kept at −80° C. until further use. By comparing unknown samples to these extracts, it was possible to determine the relative CD40-TRAF complex concentrations in arbitrary units. The necessary normalization for sample-to-sample variations in the CD40 expression was calculated with the following formula: […]
Recruitment of various TRAFs to receptors different to CD40, was tested by the recruitment assay described in example 1 by transforming cells with expression plasmids encoding hybrids receptors comprising the extracellular domain of CD40 and transmembrane and intracellular domain of anyone of the following receptors: BCMA (Madry et al. 1998 and Hatzoglou et al. 2000) the LTβR-receptor (Mosialos et al. 1995, Crowe et al. 1994, Nakano et al. 1996), TACI (von Bulow et al. 1997, Xia et al. 2000) the p75TNFR (Rothe et al. 1994) and the CD27 (Gravestein et al. 1998, Akiba et al. 1998) (for details of constructs see example 7). Measurement of TRAF recruitment to the signalling domains of BCMA the LTβR-receptor TACI the p75TNFR or the CD27 was carried out by co-transfecting 293T cells with a plasmid encoding anyone of the above hybrid receptors together with a plasmid encoding TRAF and measurement of the TRAF/Receptor complex using the ELISA sandwich described in example 1 and the quantitation as described in example 3. The assay with the hybrid receptors is schematically represented in FIG. 4A. The results shown in FIG. 4B indicate that, using the assay monitoring recruitment in intact cells, any TRAF recruiting receptor of the TNF/NGF family can be examined with the same antibody sandwich assay described in example 1 and the amount of TRAF-receptor/CD40 hybrid complex can be monitored as described in example 3. […] Recruitment of TRAF3 to all the receptors tested is similar. […]

p75TNFR = target: T2, p75TNFR (Homo sapiens, UniProt P20333+P25942); experiment: Recruitment assay with hybrid receptor (CD40 extracellular domain, p75TNFR transmembrane and intracellular domain); type: cell-based; settings: 293T cells, CD40 as relative standard
T2 construct: cDNA fragments encoding for the transmembrane and cytoplasmic domains of the LTβR, TACI, the p75TNF receptor, CD27; expressed in transfected cells; host or cells: 293T
Experimental: as §1, with “By comparing unknown samples to these extracts, it was possible to determine the relative CD40-TRAF complex concentrations in arbitrary units.” left out
Recruitment of various TRAFs to receptors different to CD40, was tested by the recruitment assay described in example 1 by transforming cells with expression plasmids encoding hybrids receptors comprising the extracellular domain of CD40 and transmembrane and intracellular domain of anyone of the following receptors: BCMA (Madry et al. 1998 and Hatzoglou et al. 2000) the LTβR-receptor (Mosialos et al. 1995, Crowe et al. 1994, Nakano et al. 1996), TACI (von Bulow et al. 1997, Xia et al. 2000) the p75TNFR (Rothe et al. 1994) and the CD27 (Gravestein et al. 1998, Akiba et al. 1998) (for details of constructs see example 7). Measurement of TRAF recruitment to the signalling domains of BCMA the LTβR-receptor TACI the p75TNFR or the CD27 was carried out by co-transfecting 293T cells with a plasmid encoding anyone of the above hybrid receptors together with a plasmid encoding TRAF and measurement of the TRAF/Receptor complex using the ELISA sandwich described in example 1 and the quantitation as described in example 3. […]

T1 sequence (P25942+P36941 fused): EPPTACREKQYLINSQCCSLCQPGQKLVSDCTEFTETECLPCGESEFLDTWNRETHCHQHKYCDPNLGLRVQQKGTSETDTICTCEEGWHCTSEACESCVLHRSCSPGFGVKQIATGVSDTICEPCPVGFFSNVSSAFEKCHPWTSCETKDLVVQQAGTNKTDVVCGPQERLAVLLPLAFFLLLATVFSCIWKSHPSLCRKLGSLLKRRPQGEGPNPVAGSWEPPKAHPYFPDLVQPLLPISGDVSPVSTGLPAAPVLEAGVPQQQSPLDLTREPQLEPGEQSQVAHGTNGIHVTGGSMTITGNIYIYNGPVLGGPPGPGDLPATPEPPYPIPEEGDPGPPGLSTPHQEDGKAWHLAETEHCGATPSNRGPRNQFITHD
T2 sequence (P25942+P20333 fused): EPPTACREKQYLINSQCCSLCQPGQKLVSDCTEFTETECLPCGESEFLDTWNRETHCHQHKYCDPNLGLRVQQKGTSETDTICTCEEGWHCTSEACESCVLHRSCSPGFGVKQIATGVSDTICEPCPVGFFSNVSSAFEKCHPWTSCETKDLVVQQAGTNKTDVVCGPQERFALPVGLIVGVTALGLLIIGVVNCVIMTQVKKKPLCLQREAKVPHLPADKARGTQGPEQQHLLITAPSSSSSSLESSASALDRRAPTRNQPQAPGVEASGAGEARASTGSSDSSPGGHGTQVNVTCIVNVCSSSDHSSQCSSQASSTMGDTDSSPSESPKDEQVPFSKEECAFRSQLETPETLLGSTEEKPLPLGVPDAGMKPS

B1: TRAF1: TNF receptor associated factor 1, adaptor protein overexpressed in 293T cells from pcDNA3 (protein, UniProt Q13077 1-416, looked up)
chain: MASSSGSSPRPAPDENEFPFGCPPTVCQDPKEPRALCCAGCLSENPRNGEDQICPKCRGEDLQSISPGSRLRTQEKAHPEVAEAGIGCPFAGVGCSFKGSPQSVQEHEVTSQTSHLNLLLGFMKQWKARLGCGLESGPMALEQNLSDLQLQAAVEVAGDLEVDCYRAPCSESQEELALQHFMKEKLLAELEGKLRVFENIVAVLNKEVEASHLALATSIHQSQLDRERILSLEQRVVELQQTLAQKDQALGKLEQSLRLMEEASFDGTFLWKITNVTRRCHESACGRTVSLFSPAFYTAKYGYKLCLRLYLNGDGTGKRTHLSLFIVIMRGEYDALLPWPFRNKVTFMLLDQNNREHAIDAFRPDLSSASFQRPQSETNVASGCPLFFPLSKLQSPKHAYVKDDTMFLKCIVETST
modifications: full-length
notes: TNF receptor associated factor 1, adaptor protein overexpressed in 293T cells from pcDNA3
LTβR
  recruitment to LTβR, folds higher than recruitment to CD40: 25 fold
p75TNFR
  recruitment to p75TNFR, folds higher than recruitment to CD40: 25 fold

B2: TRAF2: TNF receptor associated factor 2, human adaptor protein expressed from pcDNA3 (protein, UniProt Q12933 1-501, looked up)
chain: MAAASVTPPGSLELLQPGFSKTLLGTKLEAKYLCSACRNVLRRPFQAQCGHRYCSFCLASILSSGPQNCAACVHEGIYEEGISILESSSAFPDNAARREVESLPAVCPSDGCTWKGTLKEYESCHEGRCPLMLTECPACKGLVRLGEKERHLEHECPERSLSCRHCRAPCCGADVKAHHEVCPKFPLTCDGCGKKKIPREKFQDHVKTCGKCRVPCRFHAIGCLETVEGEKQQEHEVQWLREHLAMLLSSVLEAKPLLGDQSHAGSELLQRCESLEKKTATFENIVCVLNREVERVAMTAEACSRQHRLDQDKIEALSSKVQQLERSIGLKDLAMADLEQKVLEMEASTYDGVFIWKISDFARKRQEAVAGRIPAIFSPAFYTSRYGYKMCLRIYLNGDGTGRGTHLSLFFVVMKGPNDALLRWPFNQKVTLMLLDQNNREHVIDAFRPDVTSSSFQRPVNDMNIASGCPLFCPVSKMEAKNSYVRDDAIFIKAIVDLTGL
modifications: full-length
notes: TNF receptor associated factor 2, human adaptor protein expressed from pcDNA3
LTβR
  recruitment to LTβR, folds higher than recruitment to CD40: about 60 fold
p75TNFR
  recruitment to p75TNFR, folds higher than recruitment to CD40: about 60 fold
